“And” between values parts separate entries of the source, which are not always exact repeats. Identical values can stand only once. Where no end group is shown, it is not given here. Side-chain parts run from the residue outwards. [ ]: non-standard residue; d: D form. The star is where a group is joined. Palmitoyl = CCCCCCCCCCCCCCCC(=O)*; Myristoyl = CCCCCCCCCCCCCC(=O)*; Glu = glutamate linker
B1: JM#261 (peptide)
peptide: [dL]LRWSRK(Myristoyl)-NH2
modifications: N-terminus assumed
SMILES: CCCCCCCCCCCCCC(=O)NCCCC[C@H](NC(=O)[C@H](CCCNC(=N)N)NC(=O)[C@H](CO)NC(=O)[C@H](Cc1c[nH]c2ccccc12)NC(=O)[C@H](CCCNC(=N)N)NC(=O)[C@H](CC(C)C)NC(=O)[C@H](N)CC(C)C)C(N)=O
B2: JM#236 (peptide)
peptide: [dL]LRWSRK(Palmitoyl)-NH2
modifications: N-terminus assumed
SMILES: CCCCCCCCCCCCCCCC(=O)NCCCC[C@H](NC(=O)[C@H](CCCNC(=N)N)NC(=O)[C@H](CO)NC(=O)[C@H](Cc1c[nH]c2ccccc12)NC(=O)[C@H](CCCNC(=N)N)NC(=O)[C@H](CC(C)C)NC(=O)[C@H](N)CC(C)C)C(N)=O
B3: JM#172 (peptide)
peptide: ILRWSRK(Palmitoyl)L-NH2
modifications: N-terminus assumed
SMILES: CCCCCCCCCCCCCCCC(=O)NCCCC[C@H](NC(=O)[C@H](CCCNC(=N)N)NC(=O)[C@H](CO)NC(=O)[C@H](Cc1c[nH]c2ccccc12)NC(=O)[C@H](CCCNC(=N)N)NC(=O)[C@H](CC(C)C)NC(=O)[C@@H](N)[C@@H](C)CC)C(=O)N[C@@H](CC(C)C)C(N)=O

Target: CXC chemokine receptor type 4 (CXCR4) (human, UniProt P61073 1-352)
Sequence (P61073 whole entry): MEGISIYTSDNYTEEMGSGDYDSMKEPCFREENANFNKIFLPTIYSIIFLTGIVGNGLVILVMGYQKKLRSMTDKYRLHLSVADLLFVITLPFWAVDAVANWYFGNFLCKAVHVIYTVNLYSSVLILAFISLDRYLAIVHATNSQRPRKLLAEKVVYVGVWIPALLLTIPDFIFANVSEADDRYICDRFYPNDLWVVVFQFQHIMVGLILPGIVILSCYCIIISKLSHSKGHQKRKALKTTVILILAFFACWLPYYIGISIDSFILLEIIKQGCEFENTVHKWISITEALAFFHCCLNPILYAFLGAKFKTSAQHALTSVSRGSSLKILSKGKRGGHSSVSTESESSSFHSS
Test: cell-based or functional assay

Binder | IC50, X4-HIV-1 inhibition assay | IC50, HIV inhibition assay [nM] | further results
ILRWSRKMPCLS [JM#18] | < 5 nM | – | –
B1 | – | > 150 | –
B2 | – | > 150 | –
ILRWSRKLPCVS (also: coupled to PEG 20 kDa, site not given here) [SC024] | – | – | IC50, HIV-1 inhibition assay: 118 nM
ILRWSRKMPCFS [JM#19] | – | 5 to 10 | –
ILRWSRKFPCVS [JM#22] | < 5 nM | – | –
ILRWSRKMPCVS [JM#13] | < 5 nM | – | –
ILRWSRKMPCMS [JM#20] | < 5 nM | – | –
[dI]LRWSRK(Palmitoyl)-NH2 [JM#237] | – | > 150 | –
ILRWSRKLPCVS (also: PEG-coupled, average 5 kDa) [SC033] | – | – | IC50, HIV-1 inhibition assay: 716 nM
ILRWSRK-NH2 (not fully specified (residue 7)) [JM#255] | < 5 nM | – | –
IMRWSRKMPCVS [JM#17] | < 5 nM | – | –
[dL]MRWSRK-NH2 (not fully specified (residue 7)) [JM#194] | < 5 nM and 2 nM | – | –
B3 | – | 5 to 10 | –
ILRWSRKLPCVS (also: peptide copies coupled to the two different ends of PEG 20 kDa) [SC029] | – | – | IC50, HIV-1 inhibition assay: 98 nM
ILRWSRK-NH2 (not fully specified (residue 7)) [JM#192] | < 5 nM and 2 nM | – | –
ILRWSRK([Glu-Palmitoyl])LPSVS [SEQ ID NO.: 163] | – | > 150 | –

Reference: US20230131339A1, “EPI-X4 BASED PEPTIDES AND DERIVATIVES THEREOF” (Universitaet Ulm, priority 2020, published 2023)
